In US20260070976A1 (Alector, published 2026):

Tests used:
[1] = molecular target: T1, human PILRA G78 on HEK293F cells (human, UniProt Q9UKJ1 20-303); assay: hA Kd of Table 9; method not stated (Example 8: HEK293F overexpressing cells, FACS)
T1 construct: also called hA; G78 OE

[2] = molecular target: T2, cynomolgus PILRA on HEK293F cells (cynomolgus monkey, UniProt A0A7N9CRU1 20-292); assay: flow cytometry; HEK293F cells overexpressing cynomolgus PILRA, goat anti-human IgG Alexa Fluor 647
[3] = molecular target: T2, cynomolgus PILRA on HEK293F cells; assay: cA Kd of Table 9; method not stated (Example 8: HEK293F overexpressing cells, FACS)
[4] = molecular target: T3, cell surface PILRA on human monocytes (human, UniProt Q9UKJ1 20-303); assay: flow cytometry; Alexa Fluor 647-conjugated antibody on human CD14+ monocytes, Fc receptors blocked, 30 min on ice
T3 construct: Native PILRA on CD14+ monocytes of healthy donors; also called human PILRA; hu mono
Protocol: Anti-human PILRA antibodies X0 (PA-29) and its affinity matured variants were tested for their abilities to bind cell surface PILRA on human and cynomolgus monocytes. CD14+ monocytes were isolated from healthy human donors using a RosetteSep Human Monocyte Enrichment Cocktail kit (StemCell). Cynomolgus white blood cells were collected from cynomolgus whole blood. In both human and cynomolgus samples, the Fc receptor on the tested monocytes was blocked and the monocytes were treated with Alexa Fluor 647-conjugated PILRA antibodies for 30 minutes on ice. A dose response curve of antibodies X0 (PA-29), X1, X2, X7, X11, X12, X13, X14, X16, X18, and X20 was tested for binding to cell surface PILRA in human and cynomolgus monocytes, and antibodies bound to PILRA in a dose response manner. In another sample of human donor monocytes, a dose response curve of antibodies X0 (PA-29), X1, X2, X11, X13, X18, X29 (PA-43), and X34 (A6) was tested for binding to cell surface PILRA in human and cynomolgus monocytes, and antibodies bound to PILRA in a dose response manner.

[5] = molecular target: T4, recombinant cynomolgus PILRA (SEQ ID NO:120) (cynomolgus monkey); assay: SPR, Carterra LSA, antibody amine-coupled, kinetic fit
T4 construct: also called cyno PILRA
Protocol: (§1) Binding kinetics of human anti-PILRA-IgG4 antibodies were evaluated by surface plasmon resonance (SPR) using a Carterra LSA instrument (Carterra, Salt Lake City, UT). Antibodies were immobilized in duplicate arrays onto an HC30M sensor chip (Carterra) by amine coupling according to the manufacturer's protocol. After priming the immobilized antibodies with HBS-EP+ (Teknova, Hollister, CA, #8022) running buffer with 0.5 mg/mL BSA (MP Biomedicals LLC, #820451), the immobilized antibodies were tested for their ability to bind to recombinant human PILRA (SEQ ID NO:1) and cynomolgus PILRA (SEQ ID NO:120) and to human PILRB (SEQ ID NO:105) and cynomolgus PILRB (SEQ ID NO:121).
(§2) For binding kinetics analysis, human and cynomolgus PILRA and PILRB analytes were diluted in running buffer to 440 to 470 nM, and diluted 3-fold serially five times, to 1.8 to 1.9 nM, and injected for five minutes over the entire chip using the single channel flow cell to measure association of binding to the immobilized antibodies. Dissociation of the analytes was measured for five minutes, followed by regeneration of the chip with two 30-second injections of 10 mM glycine pH 2.0.

[6] = molecular target: T5, recombinant human PILRA (human, UniProt Q9UKJ1 20-197); assay: as above
Protocol: as §1, §2

[7] = molecular target: T1, human PILRA G78 on HEK293F cells; assay: FACS on HEK293F cells, binding on human PILRA (hA) over human PILRB (hB)
Protocol: Conditioned media samples containing the tested anti-PILRA antibodies were assessed for binding to HEK293F cells overexpressing human PILRA (hA), human PILRB (hB), and cynomolgus PILRA (cA) by FACS. The conditioned media containing the tested antibodies were incubated with the cells for 30 min at 4° C., washed twice, and then detected with goat anti-human IgG secondary antibody (Alexa Fluor 647) at 1:1000 dilution. The cells were analyzed by flow cytometry on FACS Canto II, and for all cell lines, the reported MFI values were calculated for each conditioned media. These antibodies were evaluated for nonspecific binding using a baculovirus particle (BVP) assay (Jain T., Sun T., Durand S., Hall A., Houston N. R., Nett J. H., Sharkey B., Bobrowicz B., Caffry L, Yu Y., et al. Biophysical properties of the clinical-stage antibody landscape. Proc. Natl. Acad. Sci. USA. 2017; 114:944-949. Doi: 10.1073/pnas.1616408114.). The BVP scores are listed in Table 9, and the higher the score the more nonspecific binding that occurred.

[8] = molecular target: T6, human PILRB on HEK293F cells (human, UniProt Q9UKJ0 20-227); assay: hB Kd of Table 9; method not stated (Example 8: HEK293F overexpressing cells, FACS)
T6 construct: also called hB

[9] = molecular target: T3, cell surface PILRA on human monocytes; assay: cell-based or functional assay
[10] = molecular target: T5, recombinant human PILRA; assay: SPR, Biacore T200, antibody captured by anti-Fab
Protocol: (§3) A subset of these antibodies was further evaluated using the Biacore T200 (Cytiva). Anti-PILRA antibodies were diluted to 10 μg/mL and captured using an anti-Fab (Cytiva, #28958325) surface on a CM4 chip, that was prepared by amine coupling according to the manufacturer's protocol. Human PILRA and cynomolgus PILRB were diluted in running buffer to 130 nM, and diluted 4-fold serially, twice, to 8 nM. Human PILRB was similarly diluted from 260 nM to 16 nM. These analytes were injected and allowed 2 minutes of association, followed by dissociation for 5 minutes.
(§4) Data were analyzed using Biacore evaluation software to generate kinetic constants. The equilibrium dissociation constants (KD) were calculated from the fitted association and dissociation rate constants (k-on and k-off) for each of the anti-PILRA antibodies. These Kn values are indicated with asterisks in Table 8 below.

[11] = molecular target: T7, recombinant human PILRB (human, UniProt Q9UKJ0 20-191); assay: SPR, Biacore T200, antibody captured by anti-Fab
Protocol: as §3, §4

[12] = molecular target: T7, recombinant human PILRB; assay: SPR, Carterra LSA, steady-state fit
Protocol: as §1, §2
For the human PILRB interactions, the binding was too weak and heterogenous for kinetic constants to be calculated in this assay. Therefore, steady-state affinities were estimated based on the binding level of each analyte concentration at the end of the injections.

T2 sequence (A0A7N9CRU1 entry or part of it): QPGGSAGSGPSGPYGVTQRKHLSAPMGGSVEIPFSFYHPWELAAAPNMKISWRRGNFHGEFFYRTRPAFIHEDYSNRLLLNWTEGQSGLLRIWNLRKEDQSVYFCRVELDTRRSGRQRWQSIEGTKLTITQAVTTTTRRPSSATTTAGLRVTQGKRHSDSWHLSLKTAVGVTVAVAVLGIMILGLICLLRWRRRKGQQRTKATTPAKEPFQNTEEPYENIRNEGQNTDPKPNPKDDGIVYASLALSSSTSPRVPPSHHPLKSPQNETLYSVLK
T3 sequence (Q9UKJ1 20-303): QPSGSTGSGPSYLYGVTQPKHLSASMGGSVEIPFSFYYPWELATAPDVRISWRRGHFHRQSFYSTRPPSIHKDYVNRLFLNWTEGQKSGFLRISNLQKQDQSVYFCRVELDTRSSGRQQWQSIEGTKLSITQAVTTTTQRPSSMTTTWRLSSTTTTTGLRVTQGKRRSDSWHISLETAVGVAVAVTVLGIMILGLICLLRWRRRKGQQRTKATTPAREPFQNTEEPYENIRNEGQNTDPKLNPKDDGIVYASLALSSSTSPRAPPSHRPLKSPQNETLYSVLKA
T1 sequence (Q9UKJ1 20-303 R78G): as the sequence (Q9UKJ1 20-303) above, with R59G counted along it
T5 sequence (Q9UKJ1 20-197 limits assumed): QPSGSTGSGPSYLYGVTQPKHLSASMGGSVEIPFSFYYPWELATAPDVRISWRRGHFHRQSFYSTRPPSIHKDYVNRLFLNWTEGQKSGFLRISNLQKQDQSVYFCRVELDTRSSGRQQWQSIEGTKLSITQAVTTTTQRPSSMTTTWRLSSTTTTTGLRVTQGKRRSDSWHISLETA
T7 sequence (Q9UKJ0 20-191 limits assumed): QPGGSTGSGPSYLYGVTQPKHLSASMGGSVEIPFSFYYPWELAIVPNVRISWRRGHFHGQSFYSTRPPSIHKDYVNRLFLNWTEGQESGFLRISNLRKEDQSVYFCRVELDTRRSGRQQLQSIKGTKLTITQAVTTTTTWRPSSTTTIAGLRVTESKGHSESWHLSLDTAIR
T6 sequence (Q9UKJ0 20-227): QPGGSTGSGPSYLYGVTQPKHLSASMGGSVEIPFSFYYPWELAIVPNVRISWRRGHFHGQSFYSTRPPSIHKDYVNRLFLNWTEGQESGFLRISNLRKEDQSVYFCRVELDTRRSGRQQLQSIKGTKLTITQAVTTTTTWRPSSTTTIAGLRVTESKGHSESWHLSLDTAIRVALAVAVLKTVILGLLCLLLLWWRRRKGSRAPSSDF
T4 sequence (chain, as listed by the source limits assumed): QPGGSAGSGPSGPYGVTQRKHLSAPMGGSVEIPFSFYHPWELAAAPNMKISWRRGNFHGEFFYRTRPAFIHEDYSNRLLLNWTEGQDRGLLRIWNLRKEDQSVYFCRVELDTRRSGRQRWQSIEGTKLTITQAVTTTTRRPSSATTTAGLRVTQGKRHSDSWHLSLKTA

B1: X13 (antibody, human IgG4, V domains shown)
VH: QVQLVQSGAEVKKPGSSVKVSCKASGYNFLHYDVNWVRQAPGQGLEWMGGIIPIFGTANYAQKFQGRVTITADESTSTAYMELSSLRSEDTAVYYCATAVGAGWFDPWGQGTLVTVSS
VL: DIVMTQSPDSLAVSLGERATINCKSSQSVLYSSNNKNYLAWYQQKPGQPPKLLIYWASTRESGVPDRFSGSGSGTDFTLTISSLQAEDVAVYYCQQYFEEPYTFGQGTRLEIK
notes: conditioned media in the HEK293F assays
Kd [1]: 0.2 nM | EC50 (read off the curve) [2]: ~0.5 µg/mL | Kd [3]: 0.4 nM | EC50 (read off the curve) [4]: ~0.2 µg/mL | Kd [5]: 0.3 nM | Kd [6]: 1.1 nM | hA/hB binding ratio on HEK293F [7]: 20.3 | Kd [8]: 51.5 nM | Hu Mono DR EC50 [9]: ~0.0004 µg/mL | Kd [10]: 0.2 nM | Kd [11]: 9.1 nM | Kd [12]: 18 nM
